In patent US20140086913A1 (Gilead, published 2014):

How the values were obtained:
[1] = molecular target: DDR1 endogenously expressed on human cancer cell lines (T47D, HCT-116, A431) (human) (UniProt Q08345); assay: cell-based or functional assay
mouse ECD-DDR1-Fc = molecular target: T1, mouse ECD-DDR1-Fc (mouse; human, UniProt Q03146 22-414); assay: ELISA, coated antigen
T1 construct: also called mouse DDR1-ECD; wild-type mouse DDR1-ECD; not shown: human IgG1 Fc of the vector pFuse-hIgG1-Fc1 (Invivogen)
T1 sequence: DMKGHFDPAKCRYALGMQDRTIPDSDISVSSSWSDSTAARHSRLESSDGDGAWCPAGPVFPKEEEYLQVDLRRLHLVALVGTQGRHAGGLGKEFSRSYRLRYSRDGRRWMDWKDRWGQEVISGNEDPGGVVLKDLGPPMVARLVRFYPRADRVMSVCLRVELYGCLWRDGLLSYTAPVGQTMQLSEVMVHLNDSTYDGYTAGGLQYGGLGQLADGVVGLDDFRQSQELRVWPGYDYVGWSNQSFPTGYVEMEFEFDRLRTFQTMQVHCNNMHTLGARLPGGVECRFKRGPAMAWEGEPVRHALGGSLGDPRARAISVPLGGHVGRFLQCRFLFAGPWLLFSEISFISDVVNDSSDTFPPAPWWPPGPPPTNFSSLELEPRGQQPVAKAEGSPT
Procedure, shortened: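 Plates coated overnight at 4° C with 2 μg/mL purified tagged DDR1 ECD protein, BSA-blocked; serially diluted murine anti-DDR1 mAbs bound 1 hr at room temperature, detected with anti-mouse IgG-HRP and TMB (OD 450). Apparent KD taken as C-parameter of 4-parameter logistic fit of OD versus antibody concentration.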

[2] = molecular target: T2, mouse DDR1 stably expressed on HEK293 cells (mouse, UniProt Q03146 20-911); assay: flow cytometry on transfected HEK293 cells
T2 construct: whole, on cells; also called murine DDR1
T2 sequence (looked up): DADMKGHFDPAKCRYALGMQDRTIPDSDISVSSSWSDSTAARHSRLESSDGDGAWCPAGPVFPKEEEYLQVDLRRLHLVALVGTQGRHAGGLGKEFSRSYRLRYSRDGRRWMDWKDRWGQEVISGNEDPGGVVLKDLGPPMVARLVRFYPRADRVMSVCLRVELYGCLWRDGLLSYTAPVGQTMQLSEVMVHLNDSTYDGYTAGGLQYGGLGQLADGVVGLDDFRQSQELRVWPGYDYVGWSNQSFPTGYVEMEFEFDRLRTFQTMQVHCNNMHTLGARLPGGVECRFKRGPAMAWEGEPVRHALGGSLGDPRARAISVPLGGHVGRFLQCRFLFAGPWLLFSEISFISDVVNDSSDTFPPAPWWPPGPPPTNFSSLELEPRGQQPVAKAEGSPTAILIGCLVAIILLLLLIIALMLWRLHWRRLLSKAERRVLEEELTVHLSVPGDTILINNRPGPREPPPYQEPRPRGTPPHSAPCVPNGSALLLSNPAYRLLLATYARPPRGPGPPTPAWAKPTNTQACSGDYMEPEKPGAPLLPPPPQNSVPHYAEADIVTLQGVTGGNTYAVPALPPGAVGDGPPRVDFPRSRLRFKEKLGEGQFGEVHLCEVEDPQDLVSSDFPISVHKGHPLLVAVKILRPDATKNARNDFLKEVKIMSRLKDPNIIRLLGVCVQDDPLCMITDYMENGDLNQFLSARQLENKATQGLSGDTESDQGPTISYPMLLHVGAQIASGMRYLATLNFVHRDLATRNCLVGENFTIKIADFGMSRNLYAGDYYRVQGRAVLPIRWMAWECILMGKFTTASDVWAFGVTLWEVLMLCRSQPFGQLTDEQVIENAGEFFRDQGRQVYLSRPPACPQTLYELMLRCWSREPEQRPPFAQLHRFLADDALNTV

[3] = molecular target: DDR1 with a ProLink Tag (PK) in engineered U20S cells (DiscoveRx) (UniProt Q08345); assay: cell-based or functional assay
[4] = molecular target: DDR1 stably over-expressed in HCT-116 tumor cells (UniProt Q08345); assay: cell-based or functional assay
Chain of DDR1 stably over-expressed in HCT-116 tumor cells (Q08345 19-913): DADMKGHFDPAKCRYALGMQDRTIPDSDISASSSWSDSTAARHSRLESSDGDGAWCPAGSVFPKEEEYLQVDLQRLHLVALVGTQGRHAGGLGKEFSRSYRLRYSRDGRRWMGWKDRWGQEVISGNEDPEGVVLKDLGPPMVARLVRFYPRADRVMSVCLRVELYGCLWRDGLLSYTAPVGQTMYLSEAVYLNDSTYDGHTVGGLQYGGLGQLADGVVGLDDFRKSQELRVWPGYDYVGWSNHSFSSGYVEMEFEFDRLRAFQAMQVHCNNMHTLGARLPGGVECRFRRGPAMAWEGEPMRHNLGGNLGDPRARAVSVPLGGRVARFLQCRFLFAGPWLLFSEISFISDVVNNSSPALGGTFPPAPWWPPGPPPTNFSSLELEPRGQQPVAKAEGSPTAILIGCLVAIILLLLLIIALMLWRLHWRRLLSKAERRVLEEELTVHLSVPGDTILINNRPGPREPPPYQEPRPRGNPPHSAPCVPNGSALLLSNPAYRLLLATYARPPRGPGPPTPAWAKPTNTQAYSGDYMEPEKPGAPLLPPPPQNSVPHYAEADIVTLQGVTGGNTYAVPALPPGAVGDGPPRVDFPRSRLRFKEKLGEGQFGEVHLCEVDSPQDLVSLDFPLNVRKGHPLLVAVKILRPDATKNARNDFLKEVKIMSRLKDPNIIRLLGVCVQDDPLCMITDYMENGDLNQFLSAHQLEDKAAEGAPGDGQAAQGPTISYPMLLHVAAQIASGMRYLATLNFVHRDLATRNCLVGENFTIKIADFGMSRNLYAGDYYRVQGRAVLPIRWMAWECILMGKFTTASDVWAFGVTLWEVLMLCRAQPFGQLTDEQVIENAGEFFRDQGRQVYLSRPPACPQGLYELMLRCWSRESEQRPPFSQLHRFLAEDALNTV

B1: AB2092 (antibody, V domains shown)
VH: QIQLVQSGPELKKSGETVKISCKASGYTFTDYGMNWVKQAPGKGLKWMGWINTYTGKSTYADDFKGRFAFSLETSASTTYLQITNLKNEDMATYFCARWADYFGSSYLFASWGQGTLVTVSA
VL: DVLMTQTPLSLPVSLGDQASISCRSSQSIVHSDGNTYLEWYLQKPGQSPKLLIYKVSNRFSGVPDRFSGSGSGTDFTLKISRVEAEDLGIYYCFQGSHVPWTFGGGTKLEIKR
notes: mouse hybridoma mAb
EC50, DDR1 phospho-specific ELISA (T47D) [1]: 0.52 nM | EC50, cluster formation assay (A431 cells) [1]: 4.18 nM | Maximal inhibition, DDR1 phospho-specific ELISA (T47D) [1]: 100%

B2: AB2041 (antibody, V domains shown)
VH: QVQLHQSGSELAKPGASVKMSCKASGYIFTTYWIHWLKQRPGQGLEWIGFINPDTDYTEYNQKFKDKATLTADKSSNTAYVQLSSLTSEDSAVYYCARGNYGYDGLVYWGLGTLVTVSA
VL: SIVMTQTPKFLLVSAGDRVTITCKASQSVSTDVAWYQQKPGQSPKLLIYYASNRYTGVPDRFTGSGYGTDFTFTISTVQAEDLAVYFCQQDYNSYTFGGGTKLEIKR
notes: mouse hybridoma mAb
binding result (mouse ECD-DDR1-Fc): no binding | binding result [2]: binds | EC50, DDR1 phospho-specific ELISA (T47D) [1]: 0.72 nM | EC50, cluster formation assay (A431 cells) [1]: 2.03 nM | Maximal inhibition, DDR1 phospho-specific ELISA (T47D) [1]: 100%

B3: AB2078 (antibody, V domains shown)
VH: EIQLQQSGPELVNPGASVKVSCKASGYSFTDYNMYWVKQSHGKSLEWIGYIDPYNGGTSYNQKFKGKATLTVDKSSSTAFMHLNSLTSEDSAVYYCAREYYGSRLWYFDVWGAGTAVTVSS
VL: DIVMTQSPSSLAMSVGQKVTMSCKSSQSLLNRNNQKNYLAWYQQKPGQSPKLLVYFASTRESGVPDRFIGSGSGTDFTLTLSSVRAEDLAENFCQQHYSTPFTFGSGTRLEIKR
notes: mouse hybridoma mAb
Mean EC50, DDR1 Tyr513 phosphorylation assay (U20S) [3]: 1.33 nM | EC50, NFkB luciferase reporter (HCT-116, collagen II) [4]: 3.01 nM | EC90, NFkB luciferase reporter (HCT-116, collagen II) [4]: 6.66 nM
